Source: US20140357851A1 (published 2014)

Columns and labels:
[1] = target: T1, mouse PCSK9, 8xHis-tagged (mouse, UniProt Q80W65 35-694, limits assumed); assay: KinExA solution equilibrium
T1 construct: also called mPCSK9-8xHIS; mPCSK9
Description: (§1) Briefly, Reacti-Gel™ (6×) (Pierce) was pre-coated with one of human, V5-tagged cyno or His-tagged mouse PCSK9 proteins and blocked with BSA. […] Equilibrium dissociation constant (KD) were obtained from nonlinear regression of the two sets of competition curves using a one-site homogeneous binding model. The KinExA® Pro software was employed in the analysis.

[2] = target: T2, cynomolgus monkey PCSK9, V5- and 6xHis-tagged (cynomolgus monkey, UniProt A0A7N9D9N8 150-747); assay: BIAcore SPR, antibody amine-coupled to CM5 chip, PCSK9 as analyte, pH 7.4
T2 construct: also called cPCSK9-V5-6xHIS; CynoPCSK9
Protocol: Briefly, the surface plasmon resonance experiments were performed using Biacore 2000 optical biosensors (Biacore, GE Healthcare, Piscataway, N.J.). […] The concentration of PCSK9 protein was varied at 2 fold intervals (the analyte) and was injected over the immobilized antibody surface (at a flow rate of 100 μl/min for 1.5 minutes).
Antibody binding kinetic parameters including kₐ (association rate constant), kd (dissociation rate constant), and KD (dissociation equilibrium constant) were determined using the BIA evaluation 3.1 computer program (BIAcore, Inc. Piscataway, N.J.).

[3] = target: T2, cynomolgus monkey PCSK9, V5- and …; assay: KinExA solution equilibrium
Description: as §1

[4] = target: T2, cynomolgus monkey PCSK9, V5- and …; assay: BIAcore solution equilibrium assay, free PCSK9 read on immobilized 21B12

Binder	fold lower affinity to mouse PCSK9 than to human and cyno PCSK9 [1] [fold]	Kd [2] [nM]	Kd [3] [nM]	Kd [4] [nM]
16F12, anti-PCSK9 huIgG4 (antibody, V domains shown, also called 16F12 IgG4; 16F12.1) VH: QVHLVESGGGVVQPGRSLRLSCAASGFTFNSFGMHWVRQAPGKGLEWVALIWSDGSDEYYADSVKGRFTISRDNSKNTLYLQMNSLRAEDTAVYYCARAIAALYYYYGMDVWGQGTTVTVSS VL: QSVLTQPPSVSAAPGQKVTISCSGSSSNIGNNFVSWYQQLPGTAPKLLIYDYNKRPSGIPDRFSGSKSGTSATLGITGLQTGDEADYYCGTWDSSLSAYVFGTGTRVTVLQ	10 to 250	0.87	0.016	
31H4, anti-PCSK9 huIgG4 (antibody, V domains shown) VH: EVQLVESGGGLVKPGGSLRLSCAASGFTFSSYSMNWVRQAPGKGLEWVSSISSSSSYISYADSVKGRFTISRDNAKNSLYLQMNSLRAEDTAVYFCARDYDFWSAYYDAFDVWGQGTMVTVSS VL: QSVLTQPPSVSGAPGQRVTISCTGSSSNIGAGYDVHWYQQLPGTAPKLLISGNSNRPSGVPDRFSGSKSGTSASLAITGLQAEDEADYYCQSYDSSLSGSVFGGGTKLTVLQ		0.19	0.002	
21B12, anti-PCSK9 huIgG4 (antibody, V domains shown, also called 21B12 IgG4; 21B12.1) VH: QVQLVQSGAEVKKPGASVKVSCKASGYTLTSYGISWVRQAPGQGLEWMGWVSFYNGNTNYAQKLQGRGTMTTDPSTSTAYMELRSLRSDDTAVYYCARGYGMDVWGQGTTVTVSS VL: QSALTQPASVSGSPGQSITISCTGTSSDVGGYNSVSWYQQHPGKAPKLMIYEVSNRPSGVSNRFSGSKSGNTASLTISGLQAEDEADYYCNSYTSTSMVFGGGTKLTVLQ		0.36		0.011
